Laboratory results: publication PMC6736547

Target: Pcdh γB6 ectodomain, γB6_(EC1–6), wild type
Test: cryo-EM structure

stoichiometry N: 4
Substance: Pcdh γB6 ectodomain, γB6_(EC1–6), wild type (domain or fragment)
